Patent publication US10500249B2, “Compositions and methods for preventing or treating diseases, conditions, or processes characterized by aberrant fibroblast proliferation and extracellular matrix deposition” (MOERAE MATRIX, INC., priority 2014, dated 2019)

Key:
Test in all cases: Kinase Profiling Assay
Type in all cases: biochemical
Settings in all cases: 100 μM
Abl (M351T) (h) = Abl (M351T) (h) (Homo sapiens, UniProt P00519, M351T)
In short: (§1)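 Duplicate wells; [radiolabeled] ATP phosphate onto cationic substrate; filter capture (negatively charged membrane); scintillation count; % of 100% activity control. Selectivity screen of MK2 peptide inhibitors, 266 human kinases.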

EGFR(T790M) (h) = biological target: T1, EGFR(T790M) (h) (Homo sapiens, UniProt P00533, T790M)
T1 construct: purchased Millipore
In short: as §1

JNK1α1 (h) = JNK1α1 (h) (Homo sapiens, UniProt P45983)
Chain of JNK1α1 (h) (P45983 1-384 isoform P45983-2): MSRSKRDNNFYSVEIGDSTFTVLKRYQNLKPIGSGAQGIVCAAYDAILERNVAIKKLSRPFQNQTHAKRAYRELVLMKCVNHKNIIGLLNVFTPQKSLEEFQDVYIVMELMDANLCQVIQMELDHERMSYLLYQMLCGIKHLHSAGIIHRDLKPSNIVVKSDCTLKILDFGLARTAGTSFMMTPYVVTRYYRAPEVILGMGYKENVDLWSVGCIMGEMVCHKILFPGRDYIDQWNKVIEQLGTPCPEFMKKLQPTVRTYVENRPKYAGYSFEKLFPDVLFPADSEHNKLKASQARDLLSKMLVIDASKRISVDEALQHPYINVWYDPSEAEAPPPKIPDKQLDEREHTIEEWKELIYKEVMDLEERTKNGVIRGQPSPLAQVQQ
In short: as §1

MKK7β (h) = biological target: T2, MKK7β (h) (Homo sapiens, UniProt O14733)
T2 construct: purchased Millipore
T2 sequence (O14733 1-419): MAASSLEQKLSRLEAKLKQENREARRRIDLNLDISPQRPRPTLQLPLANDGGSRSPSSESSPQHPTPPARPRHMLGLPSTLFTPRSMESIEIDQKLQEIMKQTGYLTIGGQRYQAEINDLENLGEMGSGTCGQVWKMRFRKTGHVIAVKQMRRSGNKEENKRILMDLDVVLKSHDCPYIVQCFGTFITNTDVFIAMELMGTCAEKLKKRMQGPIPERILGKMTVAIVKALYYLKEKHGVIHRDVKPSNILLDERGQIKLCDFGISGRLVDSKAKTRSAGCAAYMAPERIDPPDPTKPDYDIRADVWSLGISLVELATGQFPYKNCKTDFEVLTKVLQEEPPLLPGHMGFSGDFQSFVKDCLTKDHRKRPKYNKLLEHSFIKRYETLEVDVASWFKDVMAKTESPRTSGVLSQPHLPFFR
In short: as §1

CK1γ3 (h) = biological target: T3, CK1γ3 (h) (Homo sapiens, UniProt Q9Y6M4)
T3 construct: purchased Millipore
T3 sequence (Q9Y6M4 whole entry): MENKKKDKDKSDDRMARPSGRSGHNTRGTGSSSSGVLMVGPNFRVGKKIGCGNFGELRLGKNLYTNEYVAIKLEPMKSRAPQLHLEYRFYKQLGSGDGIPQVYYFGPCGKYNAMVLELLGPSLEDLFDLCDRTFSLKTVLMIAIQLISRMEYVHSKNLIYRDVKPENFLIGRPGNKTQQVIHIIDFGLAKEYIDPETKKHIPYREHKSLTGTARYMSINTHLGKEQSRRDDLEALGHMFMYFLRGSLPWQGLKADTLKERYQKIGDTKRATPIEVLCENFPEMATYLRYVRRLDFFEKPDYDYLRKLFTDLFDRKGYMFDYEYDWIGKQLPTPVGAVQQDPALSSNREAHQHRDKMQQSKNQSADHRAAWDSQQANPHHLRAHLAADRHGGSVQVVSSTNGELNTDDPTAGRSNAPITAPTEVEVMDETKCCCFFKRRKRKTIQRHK
In short: as §1

Abl (H396P) (h) = Abl (H396P) (h) (Homo sapiens, UniProt P00519, H396P)
In short: as §1

Lck (h) = Lck (h) (Homo sapiens, UniProt P06239)
In short: as §1

Snk (h) = Snk (h) (Homo sapiens, UniProt Q9NYY3)
Chain of Snk (h) (Q9NYY3 whole entry): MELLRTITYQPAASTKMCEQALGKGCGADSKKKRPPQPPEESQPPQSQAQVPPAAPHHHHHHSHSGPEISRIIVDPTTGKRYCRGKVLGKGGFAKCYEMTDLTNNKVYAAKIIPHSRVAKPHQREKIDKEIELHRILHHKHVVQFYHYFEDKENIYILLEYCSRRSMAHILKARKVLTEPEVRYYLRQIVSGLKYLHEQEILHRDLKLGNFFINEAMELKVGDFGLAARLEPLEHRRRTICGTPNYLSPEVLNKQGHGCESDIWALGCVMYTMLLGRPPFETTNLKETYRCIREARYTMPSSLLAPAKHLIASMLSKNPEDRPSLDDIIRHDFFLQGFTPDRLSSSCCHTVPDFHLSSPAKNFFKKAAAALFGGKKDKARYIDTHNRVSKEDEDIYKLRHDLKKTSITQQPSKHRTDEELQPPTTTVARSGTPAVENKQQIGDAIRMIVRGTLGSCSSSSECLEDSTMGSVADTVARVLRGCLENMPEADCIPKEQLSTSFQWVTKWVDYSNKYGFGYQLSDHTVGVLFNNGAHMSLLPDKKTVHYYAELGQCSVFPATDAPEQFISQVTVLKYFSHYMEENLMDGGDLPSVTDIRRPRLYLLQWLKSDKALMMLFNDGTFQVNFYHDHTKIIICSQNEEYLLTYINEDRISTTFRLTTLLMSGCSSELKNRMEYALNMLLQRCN
In short: as §1

PDGFRα (D842V) (h) = biological target: T4, PDGFRα (D842V) (h) (Homo sapiens, UniProt P16234, D842V)
T4 construct: purchased Millipore
In short: as §1

cKit(V560G) (h) = biological target: T5, cKit(V560G) (h) (Homo sapiens, UniProt P10721, V560G)
T5 construct: purchased Millipore
In short: as §1

MRCKα (h) = biological target: T6, MRCKα (h) (Homo sapiens, UniProt Q5VT25)
T6 construct: purchased Millipore
In short: as §1

PAR-1Bα (h) = biological target: T7, PAR-1Bα (h) (Homo sapiens, UniProt Q7KZI7)
T7 construct: purchased Millipore
T7 sequence (Q7KZI7 1-725 isoform Q7KZI7-4): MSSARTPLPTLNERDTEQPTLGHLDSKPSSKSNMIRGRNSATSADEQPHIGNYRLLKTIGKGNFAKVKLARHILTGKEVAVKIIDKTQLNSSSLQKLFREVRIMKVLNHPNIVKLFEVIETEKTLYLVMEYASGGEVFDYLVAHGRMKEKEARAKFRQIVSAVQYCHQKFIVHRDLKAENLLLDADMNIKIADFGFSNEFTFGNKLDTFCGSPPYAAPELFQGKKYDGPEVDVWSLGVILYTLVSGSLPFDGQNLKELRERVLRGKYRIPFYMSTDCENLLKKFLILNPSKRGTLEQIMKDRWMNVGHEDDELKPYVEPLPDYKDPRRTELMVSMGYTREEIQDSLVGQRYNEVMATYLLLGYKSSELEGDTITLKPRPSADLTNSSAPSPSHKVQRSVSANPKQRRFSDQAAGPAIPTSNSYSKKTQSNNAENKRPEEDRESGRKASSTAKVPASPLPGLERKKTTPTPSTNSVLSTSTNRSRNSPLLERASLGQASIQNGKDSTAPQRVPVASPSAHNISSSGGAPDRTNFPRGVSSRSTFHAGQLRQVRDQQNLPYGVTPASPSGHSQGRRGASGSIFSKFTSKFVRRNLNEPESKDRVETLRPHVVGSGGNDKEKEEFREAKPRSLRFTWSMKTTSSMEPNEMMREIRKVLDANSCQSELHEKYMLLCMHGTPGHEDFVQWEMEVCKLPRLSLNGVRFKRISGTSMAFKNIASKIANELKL
In short: as §1

JAK3 (h) = biological target: T8, JAK3 (h) (Homo sapiens, UniProt P52333)
T8 construct: purchased Millipore
T8 sequence (P52333 1-1124): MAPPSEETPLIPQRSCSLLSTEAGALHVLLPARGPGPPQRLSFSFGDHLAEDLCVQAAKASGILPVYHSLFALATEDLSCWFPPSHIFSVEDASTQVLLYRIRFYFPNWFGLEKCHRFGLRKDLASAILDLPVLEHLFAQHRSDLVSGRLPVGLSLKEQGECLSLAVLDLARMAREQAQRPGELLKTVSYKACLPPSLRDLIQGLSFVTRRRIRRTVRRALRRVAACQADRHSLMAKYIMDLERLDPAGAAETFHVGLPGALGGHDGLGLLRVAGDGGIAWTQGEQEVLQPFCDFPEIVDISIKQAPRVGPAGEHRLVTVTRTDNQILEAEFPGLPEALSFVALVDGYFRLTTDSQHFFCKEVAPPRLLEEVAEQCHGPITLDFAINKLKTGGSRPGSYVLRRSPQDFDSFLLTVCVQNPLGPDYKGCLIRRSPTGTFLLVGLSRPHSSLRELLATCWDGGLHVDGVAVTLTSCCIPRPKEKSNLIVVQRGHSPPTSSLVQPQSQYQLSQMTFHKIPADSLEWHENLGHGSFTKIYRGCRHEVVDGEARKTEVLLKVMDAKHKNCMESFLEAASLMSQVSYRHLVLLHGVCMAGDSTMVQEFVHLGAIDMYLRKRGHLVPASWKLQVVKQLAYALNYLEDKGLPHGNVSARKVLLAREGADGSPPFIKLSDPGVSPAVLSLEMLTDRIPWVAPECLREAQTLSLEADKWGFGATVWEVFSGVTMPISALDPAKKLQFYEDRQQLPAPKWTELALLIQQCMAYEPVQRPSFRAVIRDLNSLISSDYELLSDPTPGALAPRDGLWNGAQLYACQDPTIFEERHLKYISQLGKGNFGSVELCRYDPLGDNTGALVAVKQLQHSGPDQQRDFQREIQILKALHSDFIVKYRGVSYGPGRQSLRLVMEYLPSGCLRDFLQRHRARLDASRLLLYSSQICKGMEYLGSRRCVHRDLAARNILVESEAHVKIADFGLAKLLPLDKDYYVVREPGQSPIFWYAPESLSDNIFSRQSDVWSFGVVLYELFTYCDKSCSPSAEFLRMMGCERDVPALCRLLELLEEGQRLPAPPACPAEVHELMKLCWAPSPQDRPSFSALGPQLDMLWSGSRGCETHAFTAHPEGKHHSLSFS
In short: as §1

Tie2(R849W) (h) = Tie2(R849W) (h) (Homo sapiens, UniProt Q02763, R849W)
Chain of Tie2(R849W) (h) (Q02763 23-1124 R849W): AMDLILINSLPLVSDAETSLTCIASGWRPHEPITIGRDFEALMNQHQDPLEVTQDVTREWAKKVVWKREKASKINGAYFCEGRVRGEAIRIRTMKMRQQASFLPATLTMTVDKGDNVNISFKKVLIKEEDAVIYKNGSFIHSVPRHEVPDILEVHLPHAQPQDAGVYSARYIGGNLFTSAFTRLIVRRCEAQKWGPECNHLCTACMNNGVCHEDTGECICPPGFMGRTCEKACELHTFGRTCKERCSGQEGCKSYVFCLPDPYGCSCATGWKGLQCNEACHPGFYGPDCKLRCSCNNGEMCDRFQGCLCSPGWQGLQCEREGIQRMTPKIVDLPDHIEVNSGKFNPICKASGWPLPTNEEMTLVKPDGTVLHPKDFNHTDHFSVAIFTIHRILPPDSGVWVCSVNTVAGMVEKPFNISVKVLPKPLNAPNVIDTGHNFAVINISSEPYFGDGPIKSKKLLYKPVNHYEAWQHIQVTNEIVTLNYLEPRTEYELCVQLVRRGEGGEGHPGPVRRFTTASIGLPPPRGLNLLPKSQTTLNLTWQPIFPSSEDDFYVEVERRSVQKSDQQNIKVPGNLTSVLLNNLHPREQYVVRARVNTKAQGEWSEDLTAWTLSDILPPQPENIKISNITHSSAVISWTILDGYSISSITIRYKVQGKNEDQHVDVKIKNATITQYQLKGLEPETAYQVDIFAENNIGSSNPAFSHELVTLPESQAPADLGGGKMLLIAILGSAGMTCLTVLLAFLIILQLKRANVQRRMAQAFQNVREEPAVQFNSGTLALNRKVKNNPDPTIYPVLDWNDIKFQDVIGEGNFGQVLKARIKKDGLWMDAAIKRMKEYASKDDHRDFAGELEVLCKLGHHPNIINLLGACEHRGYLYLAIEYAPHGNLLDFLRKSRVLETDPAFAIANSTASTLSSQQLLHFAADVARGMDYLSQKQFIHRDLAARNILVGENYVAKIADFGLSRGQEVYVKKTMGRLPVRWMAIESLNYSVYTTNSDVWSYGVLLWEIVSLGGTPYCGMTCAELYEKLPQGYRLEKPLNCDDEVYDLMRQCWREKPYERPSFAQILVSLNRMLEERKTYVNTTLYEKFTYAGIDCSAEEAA
In short: as §1

IGF-1R (h) = biological target: T9, IGF-1R (h) (Homo sapiens, UniProt P08069)
T9 construct: purchased Millipore
In short: as §1

CK2α2 (h) = biological target: T10, CK2α2 (h) (Homo sapiens, UniProt P19784)
T10 construct: purchased Millipore
T10 sequence (P19784 whole entry): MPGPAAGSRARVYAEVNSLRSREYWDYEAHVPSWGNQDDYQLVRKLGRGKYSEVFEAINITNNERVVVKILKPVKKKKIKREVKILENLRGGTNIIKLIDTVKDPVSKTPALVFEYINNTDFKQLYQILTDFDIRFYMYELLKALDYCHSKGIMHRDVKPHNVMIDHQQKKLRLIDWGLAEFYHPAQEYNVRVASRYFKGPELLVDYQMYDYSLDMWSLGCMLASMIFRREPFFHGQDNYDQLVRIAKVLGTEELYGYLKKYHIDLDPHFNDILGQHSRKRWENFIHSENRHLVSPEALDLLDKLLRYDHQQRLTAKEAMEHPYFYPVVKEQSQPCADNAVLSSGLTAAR
In short: as §1

MAPK1 (h) = MAPK1 (h) (Homo sapiens, UniProt P27361)
Chain of MAPK1 (h) (P27361 whole entry): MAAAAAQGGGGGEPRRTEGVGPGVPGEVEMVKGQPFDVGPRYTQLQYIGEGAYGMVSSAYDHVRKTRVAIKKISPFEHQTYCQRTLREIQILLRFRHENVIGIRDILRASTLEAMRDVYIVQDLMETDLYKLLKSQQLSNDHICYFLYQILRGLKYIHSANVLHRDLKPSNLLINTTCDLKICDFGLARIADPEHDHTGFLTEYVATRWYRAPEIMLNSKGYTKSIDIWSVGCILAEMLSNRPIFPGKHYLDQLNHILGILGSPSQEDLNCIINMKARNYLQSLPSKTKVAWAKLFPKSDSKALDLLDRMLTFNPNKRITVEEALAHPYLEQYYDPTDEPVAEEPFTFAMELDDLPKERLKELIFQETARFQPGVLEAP
In short: as §1

GRK5 (h) = biological target: T11, GRK5 (h) (Homo sapiens, UniProt P34947)
T11 construct: purchased Millipore
T11 sequence (P34947 whole entry): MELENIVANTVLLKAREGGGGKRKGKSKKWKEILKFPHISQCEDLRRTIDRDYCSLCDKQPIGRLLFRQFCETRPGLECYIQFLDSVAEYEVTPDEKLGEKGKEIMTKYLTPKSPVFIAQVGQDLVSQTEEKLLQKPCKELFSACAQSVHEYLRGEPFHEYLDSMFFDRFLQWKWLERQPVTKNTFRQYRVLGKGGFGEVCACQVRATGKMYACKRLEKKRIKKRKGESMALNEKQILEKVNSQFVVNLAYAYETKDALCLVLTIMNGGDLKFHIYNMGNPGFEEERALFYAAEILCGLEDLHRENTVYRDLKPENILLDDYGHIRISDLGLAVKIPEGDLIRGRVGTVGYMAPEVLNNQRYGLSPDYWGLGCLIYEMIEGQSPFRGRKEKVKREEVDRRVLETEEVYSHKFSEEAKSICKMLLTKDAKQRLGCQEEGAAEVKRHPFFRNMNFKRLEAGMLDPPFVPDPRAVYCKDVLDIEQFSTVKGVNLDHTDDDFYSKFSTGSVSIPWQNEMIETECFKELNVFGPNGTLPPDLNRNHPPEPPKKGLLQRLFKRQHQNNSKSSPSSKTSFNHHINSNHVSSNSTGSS
In short: as §1

## FAKLAARLYRKALARQLGVAA [MMI-0300]
Abl (M351T) (h)
  % activity: 90%
EGFR(T790M) (h)
  % activity: 100%
JNK1α1 (h)
  % activity: 97%
MKK7β (h)
  % activity: 100%
CK1γ3 (h)
  % activity: 125%
Abl (H396P) (h)
  % activity: 101%
Lck (h)
  % activity: −2%

## HRRIKAWLKKIKALARQLGVAA (Mammalian) [MMI-0500]
Snk (h)
  % activity: 122%
Abl (M351T) (h)
  % activity: 61%
PDGFRα (D842V) (h)
  % activity: 170%
EGFR(T790M) (h)
  % activity: 70%
cKit(V560G) (h)
  % activity: 198%
MRCKα (h)
  % activity: 5%
PAR-1Bα (h)
  % activity: 97%
Abl (H396P) (h)
  % activity: 51%
JAK3 (h)
  % activity: 95%
Lck (h)
  % activity: 359%

## YARAAARQARAKALNRQLGVA (Mammalian) [MMI-0200]
Tie2(R849W) (h)
  % activity: 89%
IGF-1R (h)
  % activity: 49%
CK2α2 (h)
  % activity: 88%
MAPK1 (h)
  % activity: 97%
CK1γ3 (h)
  % activity: 96%
PAR-1Bα (h)
  % activity: 110%
GRK5 (h)
  % activity: 135%

## KAFAKLAARLYRKALARQLGVAA [MMI-0400]
Snk (h)
  % activity: 131%
Tie2(R849W) (h)
  % activity: 108%
PDGFRα (D842V) (h)
  % activity: 118%
IGF-1R (h)
  % activity: 90%
cKit(V560G) (h)
  % activity: 124%
CK2α2 (h)
  % activity: 96%
JNK1α1 (h)
  % activity: 98%
MKK7β (h)
  % activity: 94%
MAPK1 (h)
  % activity: 100%
MRCKα (h)
  % activity: 97%
GRK5 (h)
  % activity: 131%
JAK3 (h)
  % activity: 122%
